Data as given in patent US20260274985A1 (MYTHIC THERAPEUTICS, published 2026).
Residue numbers refer to the chain shown, from its start.

B1: MYT11567 (antibody, V domains shown)
VH: QVQLQQSGSELKKPGASVKVSCKASHYTFTNYGMNWVKQAPGQGLKWMGWINTYTGEPTYTDDFKGRFAFSLDTSVSTAYLQISSLKADDTAVYFCARGGFGSSYWYFDVWGQGSLVTVSS
VL: DIQLTQSPSSLSASVGDRVSITCKASQDVSIAVAWYQQKPGKAPKLLIYSASYRYTGVPDRFSGSGSGTDFTLTISSLQPEDFAVYYCQQHYITPLTFGAGTKVEIK
notes: Sacituzumab variant, His at HCV position 26 (H1 01)
B2: MYT11568 (antibody, V domains shown)
VH: B1 VH with H26G, Y27H
VL: B1 VL
notes: Sacituzumab variant, His at HCV position 27 (H1 02)
B3: MYT11569 (antibody, V domains shown)
VH: B1 VH with H26G, T28H
VL: B1 VL
notes: Sacituzumab variant, His at HCV position 28 (H1 03)
B4: MYT11570 (antibody, V domains shown)
VH: B1 VH with H26G, F29H
VL: B1 VL
notes: Sacituzumab variant, His at HCV position 29 (H1 04)
B5: MYT11571 (antibody, V domains shown)
VH: B1 VH with H26G, T30H
VL: B1 VL
notes: Sacituzumab variant, His at HCV position 30 (H1 05)
B6: MYT11572 (antibody, V domains shown)
VH: B1 VH with H26G, N31H
VL: B1 VL
notes: Sacituzumab variant, His at HCV position 31 (H1 06)
B7: MYT11573 (antibody, V domains shown)
VH: B1 VH with H26G, Y32H
VL: B1 VL
B8: MYT11574 (antibody, V domains shown)
VH: B1 VH with H26G, G33H
VL: B1 VL
B9: MYT11575 (antibody, V domains shown)
VH: B1 VH with H26G, M34H
VL: B1 VL
notes: Sacituzumab variant, His at HCV position 34 (H1 09)
B10: MYT11576 (antibody, V domains shown)
VH: B1 VH with H26G, N35H
VL: B1 VL
notes: Sacituzumab variant, His at HCV position 35 (H1 10)
B11: MYT11577 (antibody, V domains shown)
VH: B1 VH with H26G, W50H
VL: B1 VL
B12: MYT11578 (antibody, V domains shown)
VH: B1 VH with H26G, I51H
VL: B1 VL
notes: Sacituzumab variant, His at HCV position 51 (H2 02)
B13: MYT11579 (antibody, V domains shown)
VH: B1 VH with H26G, N52H
VL: B1 VL
notes: Sacituzumab variant, His at HCV position 52 (H2 03)
B14: MYT11580 (antibody, V domains shown)
VH: B1 VH with H26G, T53H
VL: B1 VL
notes: Sacituzumab variant, His at HCV position 53 (H2 04)
B15: MYT11581 (antibody, V domains shown)
VH: B1 VH with H26G, Y54H
VL: B1 VL
notes: Sacituzumab variant, His at HCV position 54 (H2 05)
B16: MYT11582 (antibody, V domains shown)
VH: B1 VH with H26G, T55H
VL: B1 VL
notes: Sacituzumab variant, His at HCV position 55 (H2 06)
B17: MYT11584 (antibody, V domains shown)
VH: B1 VH with H26G, E57H
VL: B1 VL
notes: Sacituzumab variant, His at HCV position 57 (H2 08)
B18: MYT11585 (antibody, V domains shown)
VH: B1 VH with H26G, P58H
VL: B1 VL
notes: Sacituzumab variant, His at HCV position 58 (H2 09)
B19: MYT11586 (antibody, V domains shown)
VH: B1 VH with H26G, T59H
VL: B1 VL
notes: Sacituzumab variant, His at HCV position 59 (H2 10)
B20: MYT11587 (antibody, V domains shown)
VH: B1 VH with H26G, Y60H
VL: B1 VL
B21: MYT11588 (antibody, V domains shown)
VH: B1 VH with H26G, T61H
VL: B1 VL
notes: Sacituzumab variant, His at HCV position 61 (H2 12)
B22: MYT11589 (antibody, V domains shown)
VH: B1 VH with H26G, D62H
VL: B1 VL
B23: MYT11590 (antibody, V domains shown)
VH: B1 VH with H26G, D63H
VL: B1 VL
notes: Sacituzumab variant, His at HCV position 63 (H2 14)
B24: MYT11591 (antibody, V domains shown)
VH: B1 VH with H26G, F64H
VL: B1 VL
notes: Sacituzumab variant, His at HCV position 64 (H2 15)
B25: MYT11691 (antibody, V domains shown)
VH: QVQLVQSGAEVKKPGASVKVSCKASGYTFTTAGMQWVRQAPGQGLEWMGWINTHSGVPKYAEDFKGRVTISADTSTSTAYLQLSSLKSEDTAVYYCARSGFGSSYWYFDVWGQGTLVTVSS
VL: B1 VL with L4M, S20T, I31T, Y53H, D60S, A100Q, V104L
notes: IgG; also called Datopotamab LC variant
B26: MYT13265 (antibody, V domains shown)
VH: B25 VH with R98H
VL: B1 VL with L4M, S20T, I31T, Y53H, D60S, A100Q, V104L
notes: Full-length IgG; also called Datopotamab HC-LC pairing variant
B27: MYT13283 (antibody, V domains shown)
VH: QVQLQESGPGLVKPSETLSLTCTVSGGSISSYGVHWIRQPPGKGLEWIGVIWTSGVTDYNSALMGRVTISVDTSKNQFSLKLSSVTAADTAVYYCARDGDYHRYTMDYWGQGTLVTVSS
VL: DIVMTQSPDSLAVSLGERATINCRASKSVSTSGYSYMHWYQQKPGQPPKLLIYLASNLEHGVPDRFSGSGSGTDFTLTISSLQAEDVAVYYCQHSRELPYTFGQGTKLEIK
notes: Full-length IgG; also called h7E6SVG HC-LC pairing variant
B28: MYT13290 (antibody, V domains shown)
VH: B27 VH with H102D, M106H
VL: B27 VL with H60S, Q93H
notes: as for B27
B29: MYT13160 (antibody, V domains shown)
VH: B1 VH with H26G, Y32H
VL: B1 VL with S30H
notes: IgG; also called Sacituzumab HC-LC pairing variant
B30: MYT13368 (antibody, V domains shown)
VH: B1 VH with H26G, Y60H
VL: B1 VL with S30H, V33H
notes: as for B29
B31: MYT13424 (antibody, V domains shown)
VH: B1 VH with H26G, Y60H
VL: B1 VL with S30H, A51H, I93H
notes: as for B29
B32: MYT13426 (antibody, V domains shown)
VH: B1 VH with H26G, D63H
VL: B1 VL with S30H, A51H, I93H
notes: as for B29
B33: MYT13429 (antibody, V domains shown)
VH: B1 VH with H26G, G66H
VL: B1 VL with S30H, A51H, I93H
notes: as for B29
B34: MYT13433 (antibody, V domains shown)
VH: B1 VH with H26G, D62H
VL: B1 VL with A51H, Y53H, I93H
notes: as for B29

These binders were tested against T1, Human TROP2 Protein, His Tag (Acro Biosystems) (human, UniProt P09758 27-274) (assay: BLI (Octet)).
T1 construct: Bought protein; not shown: His tag
T1 sequence (looked up): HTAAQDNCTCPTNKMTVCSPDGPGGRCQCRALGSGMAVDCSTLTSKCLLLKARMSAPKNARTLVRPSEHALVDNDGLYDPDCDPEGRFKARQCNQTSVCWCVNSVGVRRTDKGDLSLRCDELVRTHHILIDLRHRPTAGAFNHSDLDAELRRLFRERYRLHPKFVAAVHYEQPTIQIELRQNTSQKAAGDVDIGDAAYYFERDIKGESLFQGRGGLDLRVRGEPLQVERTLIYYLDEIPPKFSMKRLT
Procedure: After allowing for four days of protein expression, cell culture supernatants were collected, quantified by SDS-PAGE analysis (DNS), and the pH dependence of the variant was evaluated using biolayer interferometry (BLI) on an Octet RED 96e instrument. Briefly, cell culture supernatants were diluted based on qualitative expression level of the variant determined by visual examination of SDS-PAGE gels, 5 μL of cell culture supernatant was diluted into 195 μL of 1×PBST, pH 7.4 for high expressors, 25 μL of cell culture supernatant was diluted into 175 μL of 1×PBST, pH 7.4 for medium expressors and 100 μL of cell culture supernatant was diluted into 100 μL of 1×PBST, pH 7.4 for low expressors for loading onto the sensor tips. The resulting diluted supernatants were then captured on an anti-human Fc sensor (Forte Bio). A baseline was established using 1×PBST (50 mM Potassium Phosphate Buffer+150 mM NaCl+0.05% Tween 20) pH 7.4, and the sensor was associated with 50 nM of TROP2 (Human TROP2 Protein, His Tag, Acro Biosystems) in 1×PBST pH 7.4 for 120 sec to generate an association curve. In the dissociation phase, the antibody-antigen complex on the sensor was exposed to 1×PBST pH 7.4 or pH 5.4, for 300 sec. Association and dissociation phase curves were examined for the starting ABPC antibody (with no substitutions) and each corresponding antibody variant at pH 5.4 and pH 7.4 to inform on two criteria: a) enhanced dissociation (i.e., higher koff values) at pH 5.4 due to histidine or alanine substitution compared to the starting ABPC, (with no substitutions), and b) reduced dissociation at pH 7.4 (i.e., lower koff values) compared to pH 5.4 in the antibody variant itself and with the starting ABPC (with no substitutions). […] It was also noted that while some mutations obliterated TROP2 binding, others were tolerated with little or n change in TROP2 binding kinetics.

Row | Binder | binding result
1 | B1 | binds
2 | B2 | binds
3 | B3 | binds
4 | B4 | binds
5 | B5 | binds
6 | B6 | binds
7 | B7 | binds
8 | B8 | binds
9 | B9 | binds
10 | B10 | binds
11 | B11 | binds
12 | B12 | binds
13 | B13 | binds
14 | B14 | binds
15 | B15 | binds
16 | B16 | binds
17 | B17 | binds
18 | B18 | binds
19 | B19 | binds
20 | B20 | binds
21 | B21 | binds
22 | B22 | binds
23 | B23 | binds
24 | B24 | binds

What follows are binders tested against T2, Human TROP2 Protein, His Tag (Acro Biosystems) (human, UniProt P09758 27-274) (assay: Octet (BLI); antigen and pH not given).
T2 construct: not shown: His tag
T2 sequence (looked up): T1 sequence (looked up)

Row | Binder | Kd [nM] | Octet response at 33.33 nM (Y-Axis) nm [nm]
25 | B25 | 6.03 | 0.0719
26 | B26 | 9.5 | 0.0712
27 | B27 | 5.32 | 0.108
28 | B28 | 7.45 | 0.103
29 | B29 | 0.009 | 0.077
30 | B30 | 1.03 | 0.14
31 | B31 | 1.97 | 0.123
32 | B32 | 1.51 | 0.132
33 | B33 | 2.85 | 0.122
34 | B34 | 4.36 | 0.12
